Experimental data published in IntAct's records for PubMed 31749804.

B1: Complement C1r subcomponent (Homo sapiens), P00736 (parent)
chain: MWLLYLLVPALFCRAGGSIPIPQKLFGEVTSPLFPKPYPNNFETTTVITVPTGYRVKLVFQQFDLEPSEGCFYDYVKISADKKSLGRFCGQLGSPLGNPPGKKEFMSQGNKMLLTFHTDFSNEENGTIMFYKGFLAYYQAVDLDECASRSKSGEEDPQPQCQHLCHNYVGGYFCSCRPGYELQEDTHSCQAECSSELYTEASGYISSLEYPRSYPPDLRCNYSIRVERGLTLHLKFLEPFDIDDHQQVHCPYDQLQIYANGKNIGEFCGKQRPPDLDTSSNAVDLLFFTDESGDSRGWKLRYTTEIIKCPQPKTLDEFTIIQNLQPQYQFRDYFIATCKQGYQLIEGNQVLHSFTAVCQDDGTWHRAMPRCKIKDCGQPRNLPNGDFRYTTTMGVNTYKARIQYYCHEPYYKMQTRAGSRESEQGVYTCTAQGIWKNEQKGEKIPRCLPVCGKPVNPVEQRQRIIGGQKAKMGNFPWQVFTNIHGRGGGALLGDRWILTAAHTLYPKEHEAQSNASLDVFLGHTNVEELMKLGNHPIRRVSVHPDYRQDESYNFEGDIALLELENSVTLGPNLLPICLPDNDTFYDLGLMGYVSGFGVMEEKIAHDLRFVRLPVANPQACENWLRGKNRMDVFSQNMFCAGHPSLKQDACQGDSGGVFAVRDPNTDRWVATGIVSWGIGCSRGYGFYTKVLNYVDWIKKEMEEED
partner: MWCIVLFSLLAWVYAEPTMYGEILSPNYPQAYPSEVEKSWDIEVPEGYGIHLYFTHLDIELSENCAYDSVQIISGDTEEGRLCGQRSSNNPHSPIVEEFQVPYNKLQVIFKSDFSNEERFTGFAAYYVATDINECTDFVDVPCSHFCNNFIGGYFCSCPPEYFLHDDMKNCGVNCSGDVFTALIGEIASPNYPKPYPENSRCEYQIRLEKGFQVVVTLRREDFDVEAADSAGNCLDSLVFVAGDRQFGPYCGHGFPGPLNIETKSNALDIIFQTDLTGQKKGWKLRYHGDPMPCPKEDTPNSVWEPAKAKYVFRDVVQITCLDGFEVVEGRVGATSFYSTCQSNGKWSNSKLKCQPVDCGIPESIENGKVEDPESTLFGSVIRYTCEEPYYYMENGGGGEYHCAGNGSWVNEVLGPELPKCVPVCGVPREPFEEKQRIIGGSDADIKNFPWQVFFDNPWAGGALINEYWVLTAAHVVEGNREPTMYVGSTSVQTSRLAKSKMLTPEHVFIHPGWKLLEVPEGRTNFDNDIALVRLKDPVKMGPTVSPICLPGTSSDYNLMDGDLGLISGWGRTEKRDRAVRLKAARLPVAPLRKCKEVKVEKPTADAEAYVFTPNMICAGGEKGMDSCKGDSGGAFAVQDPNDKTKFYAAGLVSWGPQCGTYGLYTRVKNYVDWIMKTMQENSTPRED

Variants of: B1
Settings: with c1s_human C1S

Variant | effect of a mutation on the interaction
D290G | with no effect
